Among the data in PMC2367452, “HOXA13 Is Essential for Placental Vascular Patterning and Labyrinth Endothelial Specification” are Kd values, retold here.

The target of data set [1] is T1, HOXA13 DNA-binding domain peptide (A13-DBD) (UniProt Q62424 320-386). In words: fluorescence anisotropy; abstract gives range 27-42 nM; FP: 1 nM fluorescein-labeled hairpin, 0-200 nM HOXA13-DBD, 15 C, buffer per ref 71 (not given); EMSA: Promega Gel Shift Binding System. The following applies: protein: recombinant, label: fluorescein, CCCCCCC-region loop.
T1 sequence (Q62424 320-386): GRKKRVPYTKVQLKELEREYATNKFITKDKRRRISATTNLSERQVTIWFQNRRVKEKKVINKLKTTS
Data set [2] addresses T1, HOXA13 DNA-binding domain peptide …. Put plainly: fluorescence anisotropy; legend says affinity ablated; titrated only to 200 nM; FP: 1 nM fluorescein-labeled hairpin, 0-200 nM HOXA13-DBD, 15 C, buffer per ref 71 (not given); EMSA: Promega Gel Shift Binding System. The following applies: protein: recombinant, label: fluorescein, 14 bp stem, CCCCC loop. (In general: Fluorescence polarisation rises when a labelled molecule tumbles more slowly, as on binding a larger partner.)

B1: Foxf1 hairpin (structured_DNA)
DNA: CTTATTATTAAAGGCCCCCCCTTTAATAATAAG
The Kd is the constant that tells how readily two partners part at equilibrium. With B1, in data set [1], the Kd was determined as 48 ± 4 nM.

B2: TGAC control hairpin (structured_DNA)
DNA: TGACTGACTGACTGCCCCCCAGTCAGTCAGTCA
Turning to B2, the Kd in data set [2] came out at 250 ± 22 nM.
